According to US20240400618A1:

Molecular target: pxEBN4-ACE2-AAA-His (human) (UniProt Q9BYF1)

Substance | Kd
UK, Alpha, pxENB9-FLS (from UniProt P0DTC2 15-1213) (ligand) | 1.16 pM
SA, Beta, pxENB9-FLS-B.1.351 (from UniProt P0DTC2 15-1213) (ligand) | 1570 pM
